{"source": "paper PMC1266348", "about": "“HIV-1 reverse transcriptase mutations that confer decreased in vitro susceptibility to anti-RT DNA aptamer RT1t49 confer cross resistance to other anti-RT aptamers but not to standard RT inhibitors”", "binders": {"B1": {"name": "RT1t49 (ssDNA)", "DNA": "ATCCGCCTGATTAGCGATACTCAGAAGGATAAACTGTCCAGAACTTGGA"}}, "biological_target": "HIV-1 RT wild type (HIV-1, UniProt P04585;P04585 588-1147;588-1027)", "experiment": "competition (inhibition of polymerase activity); 6 mM Mg2+; 24 nM template-primer; 80 mM KCl, 50 mM Tris-Cl pH 8.0, 6 mM MgCl2, 1 mM DTT, 0.1 mg/ml BSA, 24 nM template-primer (16S rRNA/VP200), dNTPs, 25 ng RT per 50 ul, 37 C, 15 min; IC50 of p", "settings": "protein: recombinant; copies: 1;1", "data": [{"binder": "B1", "values": [{"measurement": "IC50", "value": "1.5 ± 0.03", "unit": "nM"}]}]}
